The record followed here is patent US20240400708A1.

Assay [1] has as its target feline FcRn complex (FcRn-α subunit and β-microglobulin) (feline). Description: SPR (Biacore), FcRn on SA chip, pH 6. (SPR reads the build-up and loss of mass on a sensor chip optically.)
Assay [2] shares this target. Description: SPR (Biacore), FcRn on SA chip, pH 7.4.

B1: feline IgG1a mutant ID No. 334: S428Y, D312P, S434Y, T250Q, S252H (antibody, part only; not given: Variable domains, not shown: another chain or arm of the molecule)
constant: ASTTAPSVFPLAPSCGTTSGATVALACLVLGYFPEPVTVSWNSGALTSGVHTFPAVLQASGLYSLSSMVTVPSSRWLSDTFTCNVAHPPSNTKVDKTVRKTDHPPGPKPCDCPKCPPPEMLGGPSIFIFPPKPKDQLHISRTPEVTCLVVDLGPDDSDVQITWFVDNTQVYTAKTSPREEQFNSTYRVVSVLPILHQPWLKGKEFKCKVNSKSLPSPIERTISKAKGQPHEPQVYVLPPAQEELSRNKVSVTCLIKSFHPPDIAVEWEITGQPEPENNYRTTPPQLDSDGTYFVYSKLSVDRSHWQRGNTYTCSVYHEALHYHHTQKSLTQSPGK
In the case of B1, the Kd (commonly a measure of binding affinity in units of concentration) was found to be 0.182 nM in assay [1] and 19.9 nM in assay [2].

B2: feline IgG1a mutant ID No. 338: S252Y, S428M, S434F, D399T (antibody, part only; not given: variable domains and light chain, not shown: another chain or arm of the molecule)
constant: ASTTAPSVFPLAPSCGTTSGATVALACLVLGYFPEPVTVSWNSGALTSGVHTFPAVLQASGLYSLSSMVTVPSSRWLSDTFTCNVAHPPSNTKVDKTVRKTDHPPGPKPCDCPKCPPPEMLGGPSIFIFPPKPKDTLYISRTPEVTCLVVDLGPDDSDVQITWFVDNTQVYTAKTSPREEQFNSTYRVVSVLPILHQDWLKGKEFKCKVNSKSLPSPIERTISKAKGQPHEPQVYVLPPAQEELSRNKVSVTCLIKSFHPPDIAVEWEITGQPEPENNYRTTPPQLTSDGTYFVYSKLSVDRSHWQRGNTYTCSVMHEALHFHHTQKSLTQSPGK
On to B2, for which the dissociation constant (Kd) stood at 0.0272 nM in assay [1] and 13.8 nM in assay [2].

B3: feline IgG1a mutant ID No. 348: S252Y, S428M, S434F, Q311H (antibody, part only; not given: Variable domains, not shown: another chain or arm of the molecule)
constant: ASTTAPSVFPLAPSCGTTSGATVALACLVLGYFPEPVTVSWNSGALTSGVHTFPAVLQASGLYSLSSMVTVPSSRWLSDTFTCNVAHPPSNTKVDKTVRKTDHPPGPKPCDCPKCPPPEMLGGPSIFIFPPKPKDTLYISRTPEVTCLVVDLGPDDSDVQITWFVDNTQVYTAKTSPREEQFNSTYRVVSVLPILHHDWLKGKEFKCKVNSKSLPSPIERTISKAKGQPHEPQVYVLPPAQEELSRNKVSVTCLIKSFHPPDIAVEWEITGQPEPENNYRTTPPQLDSDGTYFVYSKLSVDRSHWQRGNTYTCSVMHEALHFHHTQKSLTQSPGK
For B3, the Kd is 0.00949 nM in assay [1] and 10.8 nM in assay [2].

B4: feline IgG1a mutant ID No. 340: S252Y, S428M, S434F, Q311R (antibody, part only; not given: Variable domains, not shown: another chain or arm of the molecule)
constant: ASTTAPSVFPLAPSCGTTSGATVALACLVLGYFPEPVTVSWNSGALTSGVHTFPAVLQASGLYSLSSMVTVPSSRWLSDTFTCNVAHPPSNTKVDKTVRKTDHPPGPKPCDCPKCPPPEMLGGPSIFIFPPKPKDTLYISRTPEVTCLVVDLGPDDSDVQITWFVDNTQVYTAKTSPREEQFNSTYRVVSVLPILHRDWLKGKEFKCKVNSKSLPSPIERTISKAKGQPHEPQVYVLPPAQEELSRNKVSVTCLIKSFHPPDIAVEWEITGQPEPENNYRTTPPQLDSDGTYFVYSKLSVDRSHWQRGNTYTCSVMHEALHFHHTQKSLTQSPGK
In the case of B4, the Kd was 0.025 nM in assay [1] and 3.3 nM in assay [2].

B5: feline IgG1a mutant ID No. 341: S252Y, S428M, S434F, D312A (antibody, part only; not given: Variable domains, not shown: another chain or arm of the molecule; small tags and cut ends)
constant: ASTTAPSVFPLAPSCGTTSGATVALACLVLGYFPEPVTVSWNSGALTSGVHTFPAVLQASGLYSLSSMVTVPSSRWLSDTFTCNVAHPPSNTKVDKTVRKTDHPPGPKPCDCPKCPPPEMLGGPSIFIFPPKPKDTLYISRTPEVTCLVVDLGPDDSDVQITWFVDNTQVYTAKTSPREEQFNSTYRVVSVLPILHQAWLKGKEFKCKVNSKSLPSPIERTISKAKGQPHEPQVYVLPPAQEELSRNKVSVTCLIKSFHPPDIAVEWEITGQPEPENNYRTTPPQLDSDGTYFVYSKLSVDRSHWQRGNTYTCSVMHEALHFHHTQKSLTQSPGK
On to B5, for which the Kd stood at 0.0353 nM in assay [1] and 6.5 nM in assay [2].

B6: feline IgG1a mutant ID No. 342: S252Y, S428M, S434F, D312P (antibody, part only; not given: Variable domains, not shown: another chain or arm of the molecule; small tags and cut ends)
constant: ASTTAPSVFPLAPSCGTTSGATVALACLVLGYFPEPVTVSWNSGALTSGVHTFPAVLQASGLYSLSSMVTVPSSRWLSDTFTCNVAHPPSNTKVDKTVRKTDHPPGPKPCDCPKCPPPEMLGGPSIFIFPPKPKDTLYISRTPEVTCLVVDLGPDDSDVQITWFVDNTQVYTAKTSPREEQFNSTYRVVSVLPILHQPWLKGKEFKCKVNSKSLPSPIERTISKAKGQPHEPQVYVLPPAQEELSRNKVSVTCLIKSFHPPDIAVEWEITGQPEPENNYRTTPPQLDSDGTYFVYSKLSVDRSHWQRGNTYTCSVMHEALHFHHTQKSLTQSPGK
As to B6, the Kd was 0.0063 nM in assay [1] and 3.29 nM in assay [2].

B7: feline IgG1a mutant ID No. 339: S252Y, S428M, S434F, P247L (antibody, part only; not given: Variable domains, not shown: another chain or arm of the molecule)
constant: ASTTAPSVFPLAPSCGTTSGATVALACLVLGYFPEPVTVSWNSGALTSGVHTFPAVLQASGLYSLSSMVTVPSSRWLSDTFTCNVAHPPSNTKVDKTVRKTDHPPGPKPCDCPKCPPPEMLGGPSIFIFPPKLKDTLYISRTPEVTCLVVDLGPDDSDVQITWFVDNTQVYTAKTSPREEQFNSTYRVVSVLPILHQDWLKGKEFKCKVNSKSLPSPIERTISKAKGQPHEPQVYVLPPAQEELSRNKVSVTCLIKSFHPPDIAVEWEITGQPEPENNYRTTPPQLDSDGTYFVYSKLSVDRSHWQRGNTYTCSVMHEALHFHHTQKSLTQSPGK
As for B7, the equilibrium dissociation constant (Kd) turned out to be 0.0168 nM in assay [1] and 6.73 nM in assay [2].

B8: feline IgG1a mutant ID No. 345: S252Y, S428M, S434F, E430I (antibody, part only; not given: Variable domains, not shown: another chain or arm of the molecule)
constant: ASTTAPSVFPLAPSCGTTSGATVALACLVLGYFPEPVTVSWNSGALTSGVHTFPAVLQASGLYSLSSMVTVPSSRWLSDTFTCNVAHPPSNTKVDKTVRKTDHPPGPKPCDCPKCPPPEMLGGPSIFIFPPKPKDTLYISRTPEVTCLVVDLGPDDSDVQITWFVDNTQVYTAKTSPREEQFNSTYRVVSVLPILHQDWLKGKEFKCKVNSKSLPSPIERTISKAKGQPHEPQVYVLPPAQEELSRNKVSVTCLIKSFHPPDIAVEWEITGQPEPENNYRTTPPQLDSDGTYFVYSKLSVDRSHWQRGNTYTCSVMHIALHFHHTQKSLTQSPGK
Regarding B8, the Kd in assay [1] stood at 0.0227 nM; in assay [2], 11.5 nM.

B9: feline IgG1a mutant ID No. 335: T250Q, S252H (antibody, part only; not given: Variable domains, not shown: another chain or arm of the molecule)
constant: ASTTAPSVFPLAPSCGTTSGATVALACLVLGYFPEPVTVSWNSGALTSGVHTFPAVLQASGLYSLSSMVTVPSSRWLSDTFTCNVAHPPSNTKVDKTVRKTDHPPGPKPCDCPKCPPPEMLGGPSIFIFPPKPKDQLHISRTPEVTCLVVDLGPDDSDVQITWFVDNTQVYTAKTSPREEQFNSTYRVVSVLPILHQDWLKGKEFKCKVNSKSLPSPIERTISKAKGQPHEPQVYVLPPAQEELSRNKVSVTCLIKSFHPPDIAVEWEITGQPEPENNYRTTPPQLDSDGTYFVYSKLSVDRSHWQRGNTYTCSVSHEALHSHHTQKSLTQSPGK
For B9, the Kd in assay [1] was determined as 8.02 nM; in assay [2], 36.9 nM.

B10: feline IgG1a mutant ID No. 343: S252Y, S428M, S434F, D399M (antibody, part only; not given: Variable domains, not shown: another chain or arm of the molecule; small tags and cut ends)
constant: ASTTAPSVFPLAPSCGTTSGATVALACLVLGYFPEPVTVSWNSGALTSGVHTFPAVLQASGLYSLSSMVTVPSSRWLSDTFTCNVAHPPSNTKVDKTVRKTDHPPGPKPCDCPKCPPPEMLGGPSIFIFPPKPKDTLYISRTPEVTCLVVDLGPDDSDVQITWFVDNTQVYTAKTSPREEQFNSTYRVVSVLPILHQDWLKGKEFKCKVNSKSLPSPIERTISKAKGQPHEPQVYVLPPAQEELSRNKVSVTCLIKSFHPPDIAVEWEITGQPEPENNYRTTPPQLMSDGTYFVYSKLSVDRSHWQRGNTYTCSVMHEALHFHHTQKSLTQSPGK
Turning to B10, the dissociation constant (Kd) in assay [1] stood at 0.041 nM; in assay [2], 10.9 nM.

B11: feline IgG1a mutant ID No. 337: S252Y, S428M, S434F, D312H (antibody, part only; not given: Variable domains, not shown: another chain or arm of the molecule)
constant: ASTTAPSVFPLAPSCGTTSGATVALACLVLGYFPEPVTVSWNSGALTSGVHTFPAVLQASGLYSLSSMVTVPSSRWLSDTFTCNVAHPPSNTKVDKTVRKTDHPPGPKPCDCPKCPPPEMLGGPSIFIFPPKPKDTLYISRTPEVTCLVVDLGPDDSDVQITWFVDNTQVYTAKTSPREEQFNSTYRVVSVLPILHQHWLKGKEFKCKVNSKSLPSPIERTISKAKGQPHEPQVYVLPPAQEELSRNKVSVTCLIKSFHPPDIAVEWEITGQPEPENNYRTTPPQLDSDGTYFVYSKLSVDRSHWQRGNTYTCSVMHEALHFHHTQKSLTQSPGK
Turning to B11, the equilibrium dissociation constant (Kd) amounted to 0.0272 nM in assay [1] and 8.96 nM in assay [2].

B12: feline IgG1a mutant ID No. 347: S252Y, S428M, S434F, L314K (antibody, part only; not given: variable domains and light chain, not shown: another chain or arm of the molecule)
constant: ASTTAPSVFPLAPSCGTTSGATVALACLVLGYFPEPVTVSWNSGALTSGVHTFPAVLQASGLYSLSSMVTVPSSRWLSDTFTCNVAHPPSNTKVDKTVRKTDHPPGPKPCDCPKCPPPEMLGGPSIFIFPPKPKDTLYISRTPEVTCLVVDLGPDDSDVQITWFVDNTQVYTAKTSPREEQFNSTYRVVSVLPILHQDWKKGKEFKCKVNSKSLPSPIERTISKAKGQPHEPQVYVLPPAQEELSRNKVSVTCLIKSFHPPDIAVEWEITGQPEPENNYRTTPPQLDSDGTYFVYSKLSVDRSHWQRGNTYTCSVMHEALHFHHTQKSLTQSPGK
For B12, the Kd was found to be 0.0567 nM in assay [1] and 10.5 nM in assay [2].

B13: feline IgG1a mutant ID No. 346: S252Y, S428M, S434F, G402R (antibody, part only; not given: Variable domains, not shown: another chain or arm of the molecule)
constant: ASTTAPSVFPLAPSCGTTSGATVALACLVLGYFPEPVTVSWNSGALTSGVHTFPAVLQASGLYSLSSMVTVPSSRWLSDTFTCNVAHPPSNTKVDKTVRKTDHPPGPKPCDCPKCPPPEMLGGPSIFIFPPKPKDTLYISRTPEVTCLVVDLGPDDSDVQITWFVDNTQVYTAKTSPREEQFNSTYRVVSVLPILHQDWLKGKEFKCKVNSKSLPSPIERTISKAKGQPHEPQVYVLPPAQEELSRNKVSVTCLIKSFHPPDIAVEWEITGQPEPENNYRTTPPQLDSDRTYFVYSKLSVDRSHWQRGNTYTCSVMHEALHFHHTQKSLTQSPGK
In the case of B13, the Kd in assay [1] stood at 0.0404 nM; in assay [2] it was 9.95 nM.

B14: feline IgG1a mutant ID No. 344: S252Y, S428M, S434F, D401R (antibody, part only; not given: Variable domains, not shown: another chain or arm of the molecule)
constant: ASTTAPSVFPLAPSCGTTSGATVALACLVLGYFPEPVTVSWNSGALTSGVHTFPAVLQASGLYSLSSMVTVPSSRWLSDTFTCNVAHPPSNTKVDKTVRKTDHPPGPKPCDCPKCPPPEMLGGPSIFIFPPKPKDTLYISRTPEVTCLVVDLGPDDSDVQITWFVDNTQVYTAKTSPREEQFNSTYRVVSVLPILHQDWLKGKEFKCKVNSKSLPSPIERTISKAKGQPHEPQVYVLPPAQEELSRNKVSVTCLIKSFHPPDIAVEWEITGQPEPENNYRTTPPQLDSRGTYFVYSKLSVDRSHWQRGNTYTCSVMHEALHFHHTQKSLTQSPGK
In the case of B14, the Kd worked out at 0.0128 nM in assay [1] and 11 nM in assay [2].

B15: feline IgG1a mutant ID No. 336: S252Y, S428M, S434F, A431K (antibody, part only; not given: Variable domains, not shown: another chain or arm of the molecule)
constant: ASTTAPSVFPLAPSCGTTSGATVALACLVLGYFPEPVTVSWNSGALTSGVHTFPAVLQASGLYSLSSMVTVPSSRWLSDTFTCNVAHPPSNTKVDKTVRKTDHPPGPKPCDCPKCPPPEMLGGPSIFIFPPKPKDTLYISRTPEVTCLVVDLGPDDSDVQITWFVDNTQVYTAKTSPREEQFNSTYRVVSVLPILHQDWLKGKEFKCKVNSKSLPSPIERTISKAKGQPHEPQVYVLPPAQEELSRNKVSVTCLIKSFHPPDIAVEWEITGQPEPENNYRTTPPQLDSDGTYFVYSKLSVDRSHWQRGNTYTCSVMHEKLHFHHTQKSLTQSPGK
In the case of B15, the equilibrium dissociation constant (Kd) in assay [1] came to 0.0359 nM; in assay [2] it was 7.28 nM.
